From patent publication US12091776B2, “Protease activity profiling via programmable phage display of comprehensive proteome-scale peptide libraries” (THE JOHNS HOPKINS UNIVERSITY, priority 2019, dated 2024)

B1: VASN: Vasorin, known ADAM17 substrate; library peptide amino acids 496-585 (protein)
peptide: LTYRNLSGPDKRLVTLRLPASLAEYTVTQLRPNATYSVCVMPLGPGRVPEGEEACGEAHTPPAVHSNHAPVTQAREGNLPLLIAPALAAV
B2: … (protein, listed as Homo sapiens)
chain: STRPVLASIEPELPMQLVSQDDESGQKKLHGLQAILVHEASGTTAITATATGYQESHLSSARTKQPHDPLVPLSASIELILVEDVRVSPE
B3: ATPGAPGSSTPGEADIGNTSFGKSGKSGHDSLTVLNPAFLRRTPTVSAASTTSSPVSKHTDAASATAVTISGSKPGTPGTPGGATSGGKI (protein, listed as Homo sapiens)
chain: ATPGAPGSSTPGEADIGNTSFGKSGKSGHDSLTVLNPAFLRRTPTVSAASTTSSPVSKHTDAASATAVTISGSKPGTPGTPGGATSGGKI
B4: ARQEKLAFQEDSRSTLSRRELDAAHTGTTGQDSDFPVTAASTVDFLKIKKSCEENVCRSLKDCEMEKCPDSCAHEMESVADHEPNKRILG (protein, listed as Homo sapiens)
chain: ARQEKLAFQEDSRSTLSRRELDAAHTGTTGQDSDFPVTAASTVDFLKIKKSCEENVCRSLKDCEMEKCPDSCAHEMESVADHEPNKRILG
B5: AIRLANSTASVSRGSMQELDMLAGLRRSHAPQSRSSLNAKPHDSLDLNCDSRDFVAAIISIPTPPANTPDESQPSSPGGGGRAGSTLRNS (protein, listed as Homo sapiens)
chain: AIRLANSTASVSRGSMQELDMLAGLRRSHAPQSRSSLNAKPHDSLDLNCDSRDFVAAIISIPTPPANTPDESQPSSPGGGGRAGSTLRNS
B6: PVTSTSSASTGHATPLPVTGLSSATTDDTTRLPVTDVSSASTGQATPLPVTSLSSVSTGDTTPLPVTSPSSASTGHASPLLVTDASSAST (protein, listed as Homo sapiens)
chain: PVTSTSSASTGHATPLPVTGLSSATTDDTTRLPVTDVSSASTGQATPLPVTSLSSVSTGDTTPLPVTSPSSASTGHASPLLVTDASSAST
B7: YVAPLTAQPATYRAQPSVSLGAAYRAQPSASLGVGYRTQPMTAQAASYRAQPSVSLGAPYRGQLASPSSQSAAASSLGPYGGAQPSASAL (protein, listed as Homo sapiens)
chain: YVAPLTAQPATYRAQPSVSLGAAYRAQPSASLGVGYRTQPMTAQAASYRAQPSVSLGAPYRGQLASPSSQSAAASSLGPYGGAQPSASAL
B8: MELQSRPEALAVELARHQNGDLKKQLHERQPRIAALSDKQALGTITAVPVTGPQVSSLQRLAGQGAAVLPQVRPKTLIPDSLPVAPGRDR (protein, listed as Homo sapiens)
chain: MELQSRPEALAVELARHQNGDLKKQLHERQPRIAALSDKQALGTITAVPVTGPQVSSLQRLAGQGAAVLPQVRPKTLIPDSLPVAPGRDR
B9: EPEPTPGLVLSKPALEEEEAPRALSLLSLPPKKRSILGLGQARPLEFLRTCYGGSFLVHESFLYKREKAVGDKVYWTCRDHALHGCRSRA (protein, listed as Homo sapiens)
chain: EPEPTPGLVLSKPALEEEEAPRALSLLSLPPKKRSILGLGQARPLEFLRTCYGGSFLVHESFLYKREKAVGDKVYWTCRDHALHGCRSRA
B10: KVATLPLSSRAGAPPAAVPIINMILPTVPALPGPGPGPGRAPPGGLTQPRGTENREVGIGGDQGPHDKGVKRTAEVPVSEASGQAPPAKA (protein, listed as Homo sapiens)
chain: KVATLPLSSRAGAPPAAVPIINMILPTVPALPGPGPGPGRAPPGGLTQPRGTENREVGIGGDQGPHDKGVKRTAEVPVSEASGQAPPAKA
B11: HSALPFRLQLRRGEARLGEERHFQESGNSSWEILRASKAEEGTYECTAVSRAGTGRAKAQIVVTDPPPQLVPAPNVTVSPGETAVLSCRV (protein, listed as Homo sapiens)
chain: HSALPFRLQLRRGEARLGEERHFQESGNSSWEILRASKAEEGTYECTAVSRAGTGRAKAQIVVTDPPPQLVPAPNVTVSPGETAVLSCRV
B12: QSVSPVQAPPPGGSAQLLPGKVLVPLAAPSMSVRGGGAGQPLPLVSPPFSVPVQNGAQPPSKIIQLTPVPVSTPSGLVPPLSPATLPGPT (protein, listed as Homo sapiens)
chain: QSVSPVQAPPPGGSAQLLPGKVLVPLAAPSMSVRGGGAGQPLPLVSPPFSVPVQNGAQPPSKIIQLTPVPVSTPSGLVPPLSPATLPGPTA
B13: PARLLGPSLTSTTPASSSSGSSSRGPSDTSSRFSKEQRGVAQPLAQLRSCPQEEGPRGRGLAARPLENRAGGPVARSEEPGAPLPVAVGT (protein, listed as Homo sapiens)
chain: PARLLGPSLTSTTPASSSSGSSSRGPSDTSSRFSKEQRGVAQPLAQLRSCPQEEGPRGRGLAARPLENRAGGPVARSEEPGAPLPVAVGT
B14: SPLIAPVMGTVAVSLSSPLLSSTATPPGVSQNLLANPMSNLVLPEAPRLRLAEPLRGGPTGPQSPACVVPTATTKVPLSTEPPQSTQDPE (protein, listed as Homo sapiens)
chain: SPLIAPVMGTVAVSLSSPLLSSTATPPGVSQNLLANPMSNLVLPEAPRLRLAEPLRGGPTGPQSPACVVPTATTKVPLSTEPPQSTQDPE
B15: EIVPASLQRVRRPVAMVMPARRTPHVQAVQGPLGSPPKRGPLPTEEQRVYRRKELEEVSPETPVVPATTQRTLARPGPEPAPATDERDRV (protein, listed as Homo sapiens)
chain: EIVPASLQRVRRPVAMVMPARRTPHVQAVQGPLGSPPKRGPLPTEEQRVYRRKELEEVSPETPVVPATTQRTLARPGPEPAPATDERDRV
B16: SSVSTGHTTPLHVTDASSASTGQATPLPVTSLSSVSTGDTTPLPVTSPSSASTGHATPLLVTDTSSASTGHATPLPVTDASSVSTDHATS (protein, listed as Homo sapiens)
chain: SSVSTGHTTPLHVTDASSASTGQATPLPVTSLSSVSTGDTTPLPVTSPSSASTGHATPLLVTDTSSASTGHATPLPVTDASSVSTDHATS
B17: IAAKAQLARQQSPSPIRHSPSPVRHVRAPTPSPVRSVSPAARISTSPIRSVRSPLLMRKTQASTVATGPEVPPPWKQEGYVASSSEAEMR (protein, listed as Homo sapiens)
chain: IAAKAQLARQQSPSPIRHSPSPVRHVRAPTPSPVRSVSPAARISTSPIRSVRSPLLMRKTQASTVATGPEVPPPWKQEGYVASSSEAEMR
B18: KAGVVTLHSVGPTAATGTTAGTGLLQTSKPLVTSVANTVTTVSLQPEKPVVSGTAVTLSLPAVTFGETSGAAICLPSVKPVVSSAGTTS (protein, listed as Homo sapiens)
chain: KAGVVTLHSVGPTAATGTTAGTGLLQTSKPLVTSVANTVTTVSLQPEKPVVSGTAVTLSLPAVTFGETSGAAICLPSVKPVVSSAGTTS
B19: VLNSGARVWPSASALGLTAPPKDAEDRARPASGLRGARVLSEGREPRASLRVQVRPGLDVAAPGVCSLSCPSPPRSSAHPGPRGPLFPAL (protein, listed as Homo sapiens)
chain: VLNSGARVWPSASALGLTAPPKDAEDRARPASGLRGARVLSEGREPRASLRVQVRPGLDVAAPGVCSLSCPSPPRSSAHPGPRGPLFPAL
B20: RLALPLRSLSASSGWNESCSSQSDISLDHVQRRRSRLKEPPELQSSERAAGSPPAPGTMSKHRGKSSATCRCCVTYCEGENHLRNKSRAE (protein, listed as Homo sapiens)
chain: RLALPLRSLSASSGWNESCSSQSDISLDHVQRRRSRLKEPPELQSSERAAGSPPAPGTMSKHRGKSSATCRCCVTYCEGENHLRNKSRAE

Biological target: T1, ADAM17 (Homo sapiens, UniProt P78536)
T1 construct: purchased RnD Systems
T1 sequence (P78536 215-824): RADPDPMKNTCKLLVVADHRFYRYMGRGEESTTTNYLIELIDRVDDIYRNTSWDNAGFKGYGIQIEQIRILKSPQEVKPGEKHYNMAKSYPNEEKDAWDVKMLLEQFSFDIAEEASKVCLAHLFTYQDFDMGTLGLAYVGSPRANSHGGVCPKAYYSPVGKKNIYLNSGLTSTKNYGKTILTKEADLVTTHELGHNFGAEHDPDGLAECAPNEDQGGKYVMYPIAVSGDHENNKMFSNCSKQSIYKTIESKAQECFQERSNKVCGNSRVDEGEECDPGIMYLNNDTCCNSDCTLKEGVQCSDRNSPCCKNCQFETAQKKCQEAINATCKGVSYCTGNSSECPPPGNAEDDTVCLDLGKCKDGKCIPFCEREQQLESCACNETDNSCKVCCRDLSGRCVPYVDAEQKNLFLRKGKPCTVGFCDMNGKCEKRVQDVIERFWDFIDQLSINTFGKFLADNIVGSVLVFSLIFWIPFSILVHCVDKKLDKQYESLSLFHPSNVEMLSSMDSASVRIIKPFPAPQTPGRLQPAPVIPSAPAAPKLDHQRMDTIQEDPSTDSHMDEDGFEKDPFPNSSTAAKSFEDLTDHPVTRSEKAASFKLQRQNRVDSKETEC
Test: SEPARATE assay: human peptidome library digest with ADAM17
Type: biochemical
Conditions: human library, ADAM17; peptide amino acids 496-585
Description: Streptavidin-coupled magnetic beads (Dynabeads M-280 Streptavidin, ThermoFisher Scientific) were washed (TBS, pH 7.4, 0.01% NP40) and resuspended in binding buffer (TBS, pH 7.4, 0.001% NP40) containing 2E9 plaque forming units per 10 μl of bead slurry. End-over-end mixing at room temperature was performed for one hour. Phage-coated beads were washed three times with wash buffer and transferred into two protein LoBind Eppendorf tubes blocked with TBS, pH 7.4 containing 1% BSA.
Digestion occurred overnight at room temperature with end-over-end rotation. […] To remove any residual biotinylated phage that may have been nonspecifically released, the 150 μl supernatant of the quenched digest reaction is then incubated with a fresh 10 μl of slurry volume M280 streptavidin beads (pre-washed three times with wash buffer) in a LoBind Eppendorf tube blocked with TBS, pH 7.4 containing 1% BSA at room temperature for one hour with end-over-end rotation.
10 μl slurry volume of protein G magnetic dynabeads were washed in buffer (TBS, pH 7.4, 0.01% NP40) and then resuspended in 50 μl TBS, pH 7.4, 0.01% NP40 containing 4 μg of M2 FLAG antibody for thirty minutes at room temperature with end-over-end rotation. The 150 μl quenched digest reaction is added to the 10 μl FLAG-coated Protein G beads and incubated for 60 minutes at room temperature with end-over-end rotation to capture phage particles released at the protease digest step. Beads are rinsed once with 100 μl wash buffer and stored at −80° C. until PCR amplification.
Library PCR preparation, high-throughput DNA sequencing, and peptide read count data generation was performed as described previously.^44 Briefly, library peptide inserts are amplified by resuspending 10 μl of FLAG-coated Protein G beads in PCR1 master mix containing the T7-Pep2_PCR1_F forward primer ([…]) (SEQ ID NO:3) and a T7-SEPARATE vector specific reverse primer ([…]) (SEQ ID NO:4), which includes an adapter sequence for sample-specific barcoding and Illumina P7 adapter incorporation during a subsequent PCR2 reaction. The PCR2 amplicons are pooled and sequenced using an Illumina NextSeq instrument in standard output mode to obtain single-end 50 nucleotide reads. Dual indexed sample demultiplexing and clonal read count determination were performed using exact sequence matching. […] To calculate the normalization factor, 100 peptides were randomly selected from the mock digest conditions with a read count ranging between 10 and 40. The median read count value for these 100 peptides is calculated for each sample. The random peptide selection and median calculation is performed 20 times and the average of the 20 median values is calculated for each sample. Finally, the normalization factor is calculated by dividing the average median value for each sample by that for one of the mock digest conditions. Read counts are then converted to normalized read counts by dividing each sample's read count values by the normalization factor. Fold enrichments are calculated for each peptide by dividing their normalized read counts in the digest condition by the normalized read counts in the mock digest condition. The fold enrichments can be visualized in an MA plot by transforming the normalized read count data into a log ratio (M, on the y-axis) and a mean average (A, on the x-axis) between the digest and mock digest conditions.

Molecule | known substrate peptide identified by SEPARATE
B1 | identified

Same assay, conditions: top 20 enriched peptides, human library (90-aa tiles); digest vs mock digest

Molecule | Adam17 Fold Change [fold]
B2 | 34.57
B3 | 39.34
B4 | 34.10
B5 | 57.97
B6 | 41.41
B7 | 39.99
B8 | 38.34
B9 | 35.48
B10 | 35.48
B11 | 43.29
B12 | 57.55
B13 | 45.89
B14 | 51.48
B15 | 34.93
B16 | 48.17
B17 | 37.14
B18 | 39.07
B19 | 44.03
B20 | 39.89
